Columns and labels:
TRX-EK-mIL15 = target: T1, TRX-EK-mIL15 (UniProt P48346)
T1 sequence: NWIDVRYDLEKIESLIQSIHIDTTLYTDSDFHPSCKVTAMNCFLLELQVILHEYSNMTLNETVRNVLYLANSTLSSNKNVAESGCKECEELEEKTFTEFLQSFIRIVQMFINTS

[1] = system: TRX-EK-hIFNa [thioredoxin: P0AA25]
H-GST-T-mLIF = H-GST-T-mLIF (UniProt P09056)
H-GST-DEVD/S-mLIF = H-GST-DEVD/S-mLIF (UniProt P09056)
H-GST-DEVD/mLIF = H-GST-DEVD/mLIF (UniProt P09056)

Sequence of TRX-EK-hIFNa [thioredoxin: P0AA25] (P0AA25 whole entry, looked up): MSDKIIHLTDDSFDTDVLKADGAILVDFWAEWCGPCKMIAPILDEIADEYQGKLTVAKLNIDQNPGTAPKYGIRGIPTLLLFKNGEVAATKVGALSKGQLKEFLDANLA

Enterokinase
cleavage of the fusion protein (gel, FIG. 3a) (TRX-EK-mIL15): Cleavage with enterokinase required a long incubation time in order to process the molecule. In the end, the molecule was processed
processing of the fusion protein (gel, FIG. 3b) [1]: 16 h incubation with Enterokinase resulted in only a minor amount of processing of the fusion protein

Thrombin
time needed for processing (H-GST-T-mLIF): up to 16 h were needed to process the H-GST-T-mLIF fusion protein with Thrombin

reverse Caspase-7
cleavage of the fusion protein (gel, FIG. 7) (H-GST-DEVD/S-mLIF): Both mLIF and hIFN alpha were cut efficiently using Either Caspase-3 or reverse Caspase-7, with either the recognition site DEVD/ or DEVD/S
cleavage of the fusion protein (gel, FIG. 7) (GST-C-hIFNα): Both mLIF and hIFN alpha were cut efficiently using Either Caspase-3 or reverse Caspase-7, with either the recognition site DEVD/ or DEVD/S
cleavage of the fusion protein (gel, FIG. 7) (H-GST-DEVD/mLIF): Both mLIF and hIFN alpha were cut efficiently using Either Caspase-3 or reverse Caspase-7, with either the recognition site DEVD/ or DEVD/S
